Experimental data: IntAct's records for PubMed 18423202

B1: Regulator of nonsense transcripts 1 (Homo sapiens), Q92900-2 (parent)
chain: MSVEAYGPSSQTLTFLDTEEAELLGADTQGSEFEFTDFTLPSQTQTPPGGPGGPGGGGAGGPGGAGAGAAAGQLDAQVGPEGILQNGAVDDSVAKTSQLLAELNFEEDEEDTYYTKDLPIHACSYCGIHDPACVVYCNTSKKWFCNGRGNTSGSHIVNHLVRAKCKEVTLHKDGPLGETVLECYNCGCRNVFLLGFIPAKADSVVVLLCRQPCASQSSLKDINWDSSQWQPLIQDRCFLSWLVKIPSEQEQLRARQITAQQINKLEELWKENPSATLEDLEKPGVDEEPQHVLLRYEDAYQYQNIFGPLVKLEADYDKKLKESQTQDNITVRWDLGLNKKRIAYFTLPKTDSDMRLMQGDEICLRYKGDLAPLWKGIGHVIKVPDNYGDEIAIELRSSVGAPVEVTHNFQVDFVWKSTSFDRMQSALKTFAVDETSVSGYIYHKLLGHEVEDVIIKCQLPKRFTAQGLPDLNHSQVYAVKTVLQRPLSLIQGPPGTGKTVTSATIVYHLARQGNGPVLVCAPSNIAVDQLTEKIHQTGLKVVRLCAKSREAIDSPVSFLALHNQIRNMDSMPELQKLQQLKDETGELSSADEKRYRALKRTAERELLMNADVICCTCVGAGDPRLAKMQFRSILIDESTQATEPECMVPVVLGAKQLILVGDHCQLGPVVMCKKAAKAGLSQSLFERLVVLGIRPIRLQVQYRMHPALSAFPSNIFYEGSLQNGVTAADRVKKGFDFQWPQPDKPMFFYVTQGQEEIASSGTSYLNRTEAANVEKITTKLLKAGAKPDQIGIITPYEGQRSYLVQYMQFSGSLHTKLYQEVEIASVDAFQGREKDFIILSCVRANEHQGIGFLNDPRRLNVALTRARYGVIIVGNPKALSKQPLWNHLLNYYKEQKVLVEGPLNNLRESLMQFSKPRKLVNTINPGARFMTTAMYDAREAIIPGSVYDRSSQGRPSSMYFQTHDQIGMISAGPSHVAAMNIPIPFNLVMPPMPPPGYFGQANGPAAGRGTPKGKTGRGGRQKNRFGLPGPSQTNLPNSQASQDVASQPFSQGALTQGYISMSQPSQMSQPGLSQPELSQDSYLGDEFKSQIDVALSQDSTYQGERAYQHGGVTGLSQY

Variants of: B1
Conditions: with eif3a_human EIF3A

Variant	effect of a mutation on the interaction
G495R;G497E	increasing interaction

Variants of: B1
Conditions: with eif3a_human EIF3A
Remark: another data set of the same source

Variant	effect of a mutation on the interaction
G495R;G497E	increasing interaction
